Tests used:
Assay type in all cases: biochemical, Metallosphaera sedula
[1] = substrate: C=CC(=O)SCCNC(=O)CCNC(=O)[C@H](O)C(C)(C)COP(=O)(O)OP(=O)(O)OC[C@H]1O[C@@H](n2cnc3c(N)ncnc32)[C@H](O)[C@@H]1OP(=O)(O)O; assay: UHPLC, 3-hydroxypropionyl-CoA formation; conditions: hydratase reaction, 100 mM Tris-HCl pH 7.8, 65 °C, apparent Km
Excerpt: UHPLC, 3-hydroxypropionyl-CoA formation on crotonyl-CoA hydratase Msed_0384

[2] = substrate: C[C@H](O)CC(=O)SCCNC(=O)CCNC(=O)[C@H](O)C(C)(C)COP(=O)(O)OP(=O)(O)OC[C@H]1O[C@@H](n2cnc3c(N)ncnc32)[C@H](O)[C@@H]1OP(=O)(O)O; assay: Ccr-coupled dehydratase assay, UHPLC; conditions: dehydratase reaction, 100 mM Tris-HCl pH 7.8, 42 °C, 1 mM NADPH and NaHCO3 for coupling enzyme, apparent Km
Excerpt: Ccr-coupled dehydratase assay, UHPLC on crotonyl-CoA hydratase Msed_0384

[3] = substrate: CCCCC/C=C/C(=O)SCCNC(=O)CCNC(=O)[C@H](O)C(C)(C)COP(=O)(O)OP(=O)(O)OC[C@H]1O[C@@H](n2cnc3c(N)ncnc32)[C@H](O)[C@@H]1OP(=O)(O)O; assay: UHPLC, 3-hydroxyoctanoyl-CoA formation; conditions: hydratase reaction, 100 mM Tris-HCl pH 7.8, 65 °C, apparent Km
Excerpt: UHPLC, 3-hydroxyoctanoyl-CoA formation on crotonyl-CoA hydratase Msed_0384

[4] = substrate: C/C=C/C(=O)SCCNC(=O)CCNC(=O)[C@H](O)C(C)(C)COP(=O)(O)OP(=O)(O)OC[C@H]1O[C@@H](n2cnc3c(N)ncnc32)[C@H](O)[C@@H]1OP(=O)(O)O; assay: UHPLC, 3-hydroxybutyryl-CoA formation; conditions: hydratase reaction, 100 mM Tris-HCl pH 7.8, 65 °C, apparent Km
Excerpt: UHPLC, 3-hydroxybutyryl-CoA formation on crotonyl-CoA hydratase Msed_0384

[5] = substrate: C=C(C)C(=O)SCCNC(=O)CCNC(=O)[C@H](O)C(C)(C)COP(=O)(O)OP(=O)(O)OC[C@H]1O[C@@H](n2cnc3c(N)ncnc32)[C@H](O)[C@@H]1OP(=O)(O)O; assay: UHPLC, 3-hydroxy-2-methylpropionyl-CoA formation; conditions: hydratase reaction, 100 mM Tris-HCl pH 7.8, 65 °C, apparent Km
Excerpt: UHPLC, 3-hydroxy-2-methylpropionyl-CoA formation on crotonyl-CoA hydratase Msed_0384

B1: crotonyl-CoA hydratase Msed_0384 (Metallosphaera sedula DSM 5348) (protein)
chain: MRTVIVEKGDVGIIRLNRPEKLNAINMEMVYDLVEALNELKSQVRAVIITGNGKAFSAGADVKEMLDMSIEQVTREGHMPLWDALRGFRKPVIAALNGVAAGGGLELAMACDMIVAGESARLGQPEINLGIIPGAGGTQRLTRTVGKYRAMEMVLTGRLITAWDAYRMGLVTKVVPDEALIPEAMRLAREITGKSGFAVELGKEAVNRALDTLLQQGLDLERRNFYVTLVSQDGREGMKAFLEKRKPEWKT
notes: full-length, N-terminal His10-tag (pET16b), recombinant in E. coli Rosetta 2 (DE3)
Work on B1 yielded a Km [1] of 180 ± 30 µM, a Km [2] of 50 ± 10 µM and a Km [3] of 500 ± 60 µM. For the same protein, the Km [4] was 220 ± 20 µM and the Km [5] was 70 ± 30 µM.

Source: paper PMC7078158, “Enzymes Catalyzing Crotonyl-CoA Conversion to Acetoacetyl-CoA During the Autotrophic CO2 Fixation in Metallosphaera sedula” (Frontiers in Microbiology, 2020)
